Results: publication PMC3893235 (mAbs, 2013)
Where a chain is given by its changes, count along the chain named.

Legend:
biotinylated huAng2 [1] = molecular target: T1, biotinylated huAng2 (human, UniProt O15123, biotin); assay: ELISA
human Ang2 protein = human Ang2 protein (Homo sapiens (Human)., UniProt O15123); assay: KinExA
biotinylated huAng2 [2] = molecular target: T1, biotinylated huAng2; assay: ELISA; remark: listed apart in the source
human Tie2-Fc = human Tie2-Fc (human, UniProt Q02763 23-748); assay: ELISA
Chain of human Tie2-Fc (Q02763 23-748): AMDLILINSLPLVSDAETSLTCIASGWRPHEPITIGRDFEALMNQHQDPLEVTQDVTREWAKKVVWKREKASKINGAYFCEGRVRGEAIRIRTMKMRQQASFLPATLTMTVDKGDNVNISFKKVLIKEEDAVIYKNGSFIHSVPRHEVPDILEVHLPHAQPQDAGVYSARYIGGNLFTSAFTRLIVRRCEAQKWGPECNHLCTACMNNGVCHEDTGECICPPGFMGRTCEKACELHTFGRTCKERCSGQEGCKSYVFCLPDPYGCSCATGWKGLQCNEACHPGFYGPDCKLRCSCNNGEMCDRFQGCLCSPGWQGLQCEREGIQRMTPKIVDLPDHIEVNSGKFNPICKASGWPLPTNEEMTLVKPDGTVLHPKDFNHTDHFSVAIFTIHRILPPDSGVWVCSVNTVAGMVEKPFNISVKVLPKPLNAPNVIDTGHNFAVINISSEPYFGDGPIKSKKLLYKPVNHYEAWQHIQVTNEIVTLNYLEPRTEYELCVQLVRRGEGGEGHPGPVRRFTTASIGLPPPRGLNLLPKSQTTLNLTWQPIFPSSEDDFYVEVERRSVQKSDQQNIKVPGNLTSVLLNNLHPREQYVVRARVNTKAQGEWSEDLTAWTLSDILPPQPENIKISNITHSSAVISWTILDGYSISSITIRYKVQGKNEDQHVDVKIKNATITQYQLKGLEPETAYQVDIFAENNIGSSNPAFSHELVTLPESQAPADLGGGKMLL

B1: Ang2 mAb (antibody, V domains shown)
VH: QVQLVESGGGVVQPGRSLRLSCAASGFTFTNYGMHWGRQAPGKGLEWVAVISHDGNNKYYVDSVKGRFTISRDNSKNTLYLQMNSLRAEDTAVYYCAREGIDFWSGLNWFDPWGQGTLVTVSS
VL: EIVLTQSPGTLSLSPGERATLSCRASQSITGSYLAWYQQKPGQAPRLLICGASSWATGIPDRFSGSGSGTDFTLTISRLEPEDFAVYYCQQYSSSPITFGQGTRLEIK
- IC50 (biotinylated huAng2 [1]): 0.2 nM
- Kd (human Ang2 protein): 0.0245 nM

B2: Cys49Thr mAb (antibody, V domains shown)
VH: B1 VH
VL: B1 VL with C50T
- IC50 (biotinylated huAng2 [1]): 0.28 nM
- Kd (human Ang2 protein): 0.037 nM

B3: Cys49Asn (antibody, V domains shown)
VH: B1 VH
VL: B1 VL with C50N
- binding result (biotinylated huAng2 [2]): binds

B4: Ang2 mAb variant Cys49Glu (antibody, V domains shown)
VH: B1 VH
VL: B1 VL with C50E
- binding result (biotinylated huAng2 [2]): binds

B5: Cys49Asp (antibody, V domains shown)
VH: B1 VH
VL: B1 VL with C50D
- binding result (biotinylated huAng2 [2]): binds

B6: Ang2 mAb variant Cys49Ala (antibody, V domains shown)
VH: B1 VH
VL: B1 VL with C50A
- fold change of potency against Ang2 mAb (biotinylated huAng2 [2]): ≤ 2.5 fold

B7: Ang2 mAb variant Cys49Phe (antibody, V domains shown)
VH: B1 VH
VL: B1 VL with C50F
- binding result (biotinylated huAng2 [2]): binds

B8: Ang2 mAb variant Cys49Gly (antibody, V domains shown)
VH: B1 VH
VL: B1 VL with C50G
- fold change of potency against Ang2 mAb (biotinylated huAng2 [2]): ≤ 2.5 fold

B9: biotinylated huAng2 (ligand, human, UniProt O15123 19-496, looked up)
chain: YNNFRKSMDSIGKKQYQVQHGSCSYTFLLPEMDNCRSSSSPYVSNAVQRDAPLEYDDSVQRLQVLENIMENNTQWLMKLENYIQDNMKKEMVEIQQNAVQNQTAVMIEIGTNLLNQTAEQTRKLTDVEAQVLNQTTRLELQLLEHSLSTNKLEKQILDQTSEINKLQDKNSFLEKKVLAMEDKHIIQLQSIKEEKDQLQVLVSKQNSIIEELEKKIVTATVNNSVLQKQQHDLMETVNNLLTMMSTSNSAKDPTVAKEEQISFRDCAEVFKSGHTTNGIYTLTFPNSTEEIKAYCDMEAGGGGWTIIQRREDGSVDFQRTWKEYKVGFGNPSGEYWLGNEFVSQLTNQQRYVLKIHLKDWEGNEAYSLYEHFYLSSEELNYRIHLKGLTGTAGKISSISQPGNDFSTKDGDNDKCICKCSQMLTGGWWFDACGPSNLNGMYYPQRQNTNKFNGIKWYYWKGSGYSLKATTMMIRPADF
modifications: biotin
- binding result (human Tie2-Fc): binds
